The results in this text go back to a protein production outcome set (Wang et al. 2014).

This data set can be described thus: label from the status in PepcDB records.

For the sequence “MKTGNLNPAPQQVTAPQNKARMDWPDIAKGISILGVVLLHVSLAIPGGQDTMMSHLNALLDPLRMPLFFMVSGFFAVKVLNQSFGELFRGRLWFYLVPYLLWTPVNLYLHRLEGTVFTGRAPGTWEWYSGSMLSATNMYWFLYFLVIFNLFLWATRKLPAWAIVALVASLWLLMPAYSEIEILRKSIIYLPTFLIGAYFRPLISRFAEAATRPKAIVFAAVLYVSGLALGVISNGLRDSENHGASVLWLMNLRDTFAHALGGNLTGFDMDHLPGMIIRIVSLPAGIVLCVWLGRIKPVGEFLKLIGRHTLPIYIGHATGLSLIFGFGLRWNFMEIDNFSDSLWHHTNTWMVIAFACAMLGGYLTYLISRVPVLGWTLVPPKLPEPDKTPAKAQADSHVKAQSAKPMNASTSSKTYGI”, the protein production entry is listed as “failed”.

On to “MKTIEIFDPAMCCPTGLCGTNINPELMRIAVVIETLKRQGVVVTRHNLRDEPQVYVSNKTVNQYLQKNGAEALPITLVDGEIAVSKDYPTTKQMSEWTGINLD”, for which the protein production result is on record as “not failed”.

For the sequence “MKTIHIYTNGRFEEKQSGIVREFPLVLHVNGREIATLISSPHDLRFLVAGFLRNQGFVERAEDFHMLAVCDDFGIANARIRGELPERLKPVLTSGCGTGVTFTLETPKIPPPLALPAITTDAVFRLMEELARRADNYRSHGGIHSAAVGDGEGNLLLFAEDIGRHNTLDRIAGEALFKGIDLAGTILVTSGRVSTEMAAKCARLGIALIASRTSATDMAVKMCDEAGIPLIGYVRGGKFTVYAHHERLAMAPPVGAIHELPLPASAQGRRIPGITGVILAGGQSRRMGSNKALLPYKGGRFIEAIHRQLAEIFDEVLLVTNNPEQYDFLPCRKVADIHPGMGALAGIHAGLHHAANPAAFMVACDMPYLNSDLIRHLATLADPGGVLIPESPAGLEPLHAVYGKGCLAAIETTLLSGERRIVSFFGRTNVNRVNAEQVALFDPDYATFSNINTPVDYYRLRDGERDELDAALGADRIAGLEHHHHHH”, the protein production entry is reported as “failed”.

For the sequence “MKTIIRQPQLYRFLKYCNESNLDKTVLDCGAGGDLPPLSIFVEDGYKTYGIEISDLQLKKAENFSRENNFKLNISKGDIRKLPFKDESMSFVYSYGTIFHMRKNDVKEAIDEIKRVLKPGGLACINFLTTKDERYNKGEKIGEGEFLQLERGEKVIHSYVSLEEADKYFKDMKVLFKEDRVVERINDGLKIKQGYVDYIAEKFSKSIL”, the protein production entry was “not failed”.

Turning to “MKTKGWGALAVLPLALALAGNVAAEEVKGKVKTVSVKAGQISLTVESKGVMLFRVTDGTTFANAASIREIHADDLLQVDYRVDGFDNVAKAVAKVVAKLPEGVTAMDTRELEALVAKGTEEGGYLLIDSRPAGKYNEAHIPTAVSIPFAELEKNPALLTASKDRLLVFYCGGVTUVLSPKSAGLAKKSGYEKVRVYLDGEPEWKKAELPLESSLAFVEKGNIVLIDLRSPEKVAAGHIPGAVGIPAADLAAAQAKFPAYRGAHLVFYSDSAEDLSQALELARDWNYKNATIFPGGIGAWQKAGKHLKTGAAAATVTYVKKLAPGEVGTEDFQAALKDGRTVVIDARAPGEFEKGHFKGAVNIPAEEAAKRLAEIPADRPVLVHCSTGTRAEMVYDLVKDKGYNLKYLKAGVEFAADGSYTISE”, the protein production entry is listed as “failed”.

With “MKTLCTHSLPKEKMPYLLRSGEGERYLFGRQVATVMANGRSTGDLFEIVLLSGGKGDAFPLHVHKDTHEGILVLDGKLELTLDGERYLLISGDYANIPAGTPHSYRMQSHRTRLVSYTMKGNVAHLYSVIGNPYDHAEHPPYASEEVSNERFAEAAAVADIVFLDEAKPACSAKLAELTELPDGAVPYVLESGEGDRLLTGDQLHRIVAAQKNTDGQFIVVSSEGPKGDRIVDHYHEYHTETFYCLEGQMTMWTDGQEIQLNPGDFLHVPANTVHSYRLDSHYTKMVGVLVPGLFEPFFRTLGDPYEGHIFPCEPQALRFDRILQNIEALDLKVMKP”, the protein production result is recorded as “not failed”.

In the case of “MKTLFSIYLFLSLNPLFLEANEITWSKFLENFKNKNDDDKPKPLTIDKNNEKQQILDKNQQILKRALEKSLKFFFIFGYNYSQATFSTSNQTLTFVANSIGFNTATGLEHFLRNHPKVGFRIFSVYNYFHSVSLSQPQTLMVQNYGGALDFSWIFVDKNIYRFRSYLGIALEQGVLLVDTIKPGAITTIIPRTKKTFFQAPLRFGFIVDFIGYLSLQLGIEMPLVRNVFYTYNNHQERFKPRFNANLSLIVSF”, the protein production result was “failed”.

In the case of “MKTLTTPAPTKSASFREGVFDSLPIVIGYMPVAFAFGMNAVKLGFTPLEGIFLSCIIYAGASQFVITALLSAGMSIWVAALTVMAMDIRHVLYGPALRHRIVQQLPTRKTALWAFGLTDEVFAAAATRLAKDNRRWSENWMIGVSLLAWLSWVLGTVIGAVFGNGPLDNYPAVEAALSFMLPALFLSFLLASFKRKQSLVVACALGGALLGLLLSSIPAAILLGILSGCLASLVNSATPQVNA”, the protein production result is “failed”.
